Residue numbers refer to the chain shown, from its start.
Key:
GIPR E291K (human) = target: T1, GIPR E291K (human) (UniProt P48546)
T1 sequence: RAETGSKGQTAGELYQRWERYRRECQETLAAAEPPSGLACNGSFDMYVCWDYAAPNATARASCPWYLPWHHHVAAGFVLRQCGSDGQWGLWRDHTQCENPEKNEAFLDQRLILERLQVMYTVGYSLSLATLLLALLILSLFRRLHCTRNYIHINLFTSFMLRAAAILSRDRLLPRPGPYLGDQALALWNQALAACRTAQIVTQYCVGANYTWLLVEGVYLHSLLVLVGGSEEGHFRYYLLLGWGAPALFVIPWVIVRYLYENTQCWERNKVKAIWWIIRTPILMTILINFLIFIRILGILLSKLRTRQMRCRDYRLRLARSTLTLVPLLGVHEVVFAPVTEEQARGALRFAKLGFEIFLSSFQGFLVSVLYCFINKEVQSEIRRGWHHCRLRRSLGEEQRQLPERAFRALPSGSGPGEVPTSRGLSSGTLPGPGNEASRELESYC

GIPR G449A (human) = target: T2, GIPR G449A (human) (UniProt P48546)
T2 sequence: T1 sequence with K270E, G428A

GIPR I221M (human) = target: T3, GIPR I221M (human) (UniProt P48546)
T3 sequence: T1 sequence with I200M, K270E

GIPR I299V (human) = target: T4, GIPR I299V (human) (UniProt P48546)
T4 sequence: T1 sequence with K270E, I278V

GIPR R164Q (human) = target: T5, GIPR R164Q (human) (UniProt P48546)
T5 sequence: T1 sequence with R143Q, K270E

GIPR Y73H (human) = target: T6, GIPR Y73H (human) (UniProt P48546)
T6 sequence: T1 sequence with Y52H, K270E

β-arrestin 2 (Rluc8-Arrestin-3-Sp1) (from UniProt P32121 1-409) (natural protein)
β-arrestin 2 recruitment (BRET) on stimulation with GIP(1-42): logEC50 (Arrestin) (log M (inferred)) (GIPR E291K (human)): -8.48
β-arrestin 2 recruitment (BRET) on stimulation with GIP(1-42): logEC50 (Arrestin) (log M (inferred)) (GIPR G449A (human)): -9.24
β-arrestin 2 recruitment (BRET) on stimulation with GIP(1-42): logEC50 (Arrestin) (log M (inferred)) (GIPR I221M (human)): -9.38
β-arrestin 2 recruitment (BRET) on stimulation with GIP(1-42): logEC50 (Arrestin) (log M (inferred)) (GIPR I299V (human)): -9.01
β-arrestin 2 recruitment (BRET) on stimulation with GIP(1-42): logEC50 (Arrestin) (log M (inferred)) (GIPR R164Q (human)): -8.92
β-arrestin 2 recruitment (BRET) on stimulation with GIP(1-42): logEC50 (Arrestin) (log M (inferred)) (GIPR Y73H (human)): -9.11
